A short description of this data set: Stability investigation of mid-proAM in sepsis sera stored at room temperature. It is filed as in vitro ADME. An excerpt: For examining the question as to whether problems are likely in a measurement of mid-proAM because of insufficient stability of the mid-proAM in a sample or measuring solution, 20 sepsis sera were each measured in a fresh state and after storage for 3 days at room temperature. […] This proven stability of mid-proAM is a major advantage in terms of handling aspects for diagnosis.

The values that follow come from patent publication US9885709B2, “Determination of a midregional proadrenomedullin partial peptide in biological fluids for diagnostic purposes, and immunoassays for carrying out such a determination” (B.R.A.H.M.S. GMBH, priority 2003, dated 2018).

Values joined by “and” are separate entries in the source; they are usually repeats but may differ in a detail not shown here. Equal values may be shown once.

With “mid-proAM: peptide which contains the amino acids 45-92 of pre-proAM or consists thereof (SEQ ID NO:3); endogenous analyte, also synthesized as standard (ELRMSSSYPTGLADVKAGPAQTLIRPQDMKGASRSPEDSSPDAARIRV; listed as Homo sapiens)”, under “20 sepsis sera, storage for 3 days at room temperature”, the immunoreactivity after storage entry was “virtually unchanged”. Besides, the Change (Day 3 value as percent of Day 0 value, individual sepsis serum, 3 days at room temperature) is 92.7% and 95.7% and 109.6% and 102.8% and 96.4% and 99.9% and 106.3% and 102.1% and 95.2% and 110.7% and 80.0% and 105.5% and 102.2% and 103.4% and 89.5% and 94.1% and 98.8% and 98.1% and 97.0% and 95.4%. Also, the “mid-proAM Day = 3” value (individual sepsis serum (one patient), after storage for 3 days at room temperature) was 1.0 nmol/l and 1.2 nmol/l and 2.1 nmol/l (2×) and 2.7 nmol/l (2×) and 3.1 nmol/l and 4.9 nmol/l and 5.9 nmol/l and 3.4 nmol/l and 4.6 nmol/l and 2.4 nmol/l and 1.3 nmol/l and 1.5 nmol/l (2×) and 1.8 nmol/l (2×) and 2.0 nmol/l and 6.1 nmol/l and 3.2 nmol/l. For the same substance, for the setting “individual sepsis serum (one patient), measured in a fresh state”, the “mid-proAM Day = 0” value is 1.1 nmol/L and 1.3 nmol/L and 1.9 nmol/L and 2.6 nmol/L and 2.8 nmol/L and 3.1 nmol/L and 4.6 nmol/L and 5.8 nmol/L and 3.6 nmol/L and 4.2 nmol/L and 3.0 nmol/L and 1.2 nmol/L and 1.5 nmol/L and 1.7 nmol/L and 2.0 nmol/L and 2.1 nmol/L and 6.2 nmol/L and 3.3 nmol/L and 2.2 nmol/L and 1.6 nmol/L.
